Reference: patent US9707290
Like-named read-outs stand apart in the source and are kept apart here.

How the values were obtained:
germline 4E10 = test: SPR
10E8 antibody [1] = test: SPR
4E10 antibody = test: SPR
10E8 antibody [2] = test: SPR, antibody on the sensor
[3] = target: germline 10E8 (predicted germline precursor to 10E8); test: SPR
[4] = target: germline 10E8 (predicted germline precursor to 10E8); test: SPR; remark: listed apart in the source
10E8 antibody [5] = test: SPR; reference 10E8_T298v2
10E8 antibody [6] = test: SPR; remark: listed apart in the source
10E8 antibody [7] = test: SPR; reference 10E8_T117v2

Row | Binder | Kd (10E8 antibody [1]) [nM] | Kd (4E10 antibody) [nM] | other results
1 | 10E8_T117v2-1_g28_g91012 (designed binder, added N-linked glycosylation sites (glycan-masked)) NAMQGIHFRRHYVRHLPKNVSQNDIIKALASPLINDGMVVSDFADHVITRENNSPTGLPVEPVGVAIPHTDSKYVNQSAISVGILAEPVNFEDANGTPDPVPVRVVFMLALGNWFDITNVLWWIKAVIQDEDFMQQLLNMSDDEIYQSIYTRISE | 0.18 | 0.49 | Kd (germline 4E10): 0.5 nM
2 | 10E8_T117v2-1 (designed binder) NAMQGIHFRRHYVRHLPKEVSQNDIIKALASPLINDGMVVSDFADHVITREQNFPTGLPVEPVGVAIPHTDSKYVRQNAISVGILAEPVNFEDAGGEPDPVPVRVVFMLALGNWFDITNVLWWIKAVIQDEDFMQQLLVMNDDEIYQSIYTRISELEHHHHHH | 0.082 | 0.168 | Kd (10E8 antibody [2]): 0.091 nM; Kd (germline 4E10): 0.187 nM; Kd [3]: 6000 nM; Kd [4]: 30000 nM
3 | 10E8_T117v2-4 (designed binder) NAMQGIHFRRHYVRHLPKEVSQNDIIKALASPLINDGMVVSDFADHVITREQNFPTGLPVEPVGVAIPHTDSKYVRQNAISVGILAEPVNFEDAGGEPDPVPVRVVFMLALGNWFDISRVLWWIKAVIQDEDFMQQLLVMNDDEIYQSIYTRISELEHHHHHH | 0.59 | 3.9 | Kd (germline 4E10): 3.2 nM; Kd [3]: 8000 nM
4 | 10E8_T117v2-3 (designed binder) NAMQGIHFRRHYVRHLPKEVSQNDIIKALASPLINDGMVVSDFADHVITREQNFPTGLPVEPVGVAIPHTDSKYVRQNAISVGILAEPVNFEDAGGEPDPVPVRVVFMLALGSWFNISNVLWWIRAVIQDEDFMQQLLVMNDDEIYQSIYTRISELEHHHHHH | 0.925 | 0.526 | Kd [3]: 8000 nM
5 | 10E8_T117v2-2 (designed binder) NAMQGIHFRRHYVRHLPKEVSQNDIIKALASPLINDGMVVSDFADHVITREQNFPTGLPVEPVGVAIPHTDSKYVRQNAISVGILAEPVNFEDAGGEPDPVPVRVVFMLALGNWFSITKVLWWIKAVIQDEDFMQQLLVMNDDEIYQSIYTRISELEHHHHHH | 1.3 | 0.0538 | 
6 | 10E8_T117v2-5 (designed binder) NAMQGIHFRRHYVRHLPKEVSQNDIIKALASPLINDGMVVSDFADHVITREQNFPTGLPVEPVGVAIPHTDSKYVRQNAISVGILAEPVNFEDAGGEPDPVPVRVVFMLALGNWFDITQVLWWIKAVIQDEDFMQQLLVMNDDEIYQSIYTRISELEHHHHHH | 0.155 |  | 
7 | 10E8_T298v2 (designed binder) GSEVSQNDIIKALASPLINDGMVVSDFADHVITREQNAPTGLPVEPVGVAIPHTDSKYVRQNAISVGILAEPVNFEDAGGEPDPVPVRVVFMLALGNWFDITNVLWWIKAVIQDADFMQQLLRMNDDEIYQSIYTRISEAAGMAGIHFRRHYVRHLGLEHHHHHH |  |  | Kd (10E8 antibody [2]): 0.172 nM; Kd [4]: 105000 nM
8 | 10E8_T117v2-1_RSF1 (designed binder) NAMAGIVFRKHYVRHLGKTVTQNEIIRALAAPLISDGMVVKDFADHVIKREEQNPTGLPVQPVGVAIPHTDSKYVYYNAISVGILQEPVAFEDAGGDGRPVPVRVVFMLALGNWFDITNVLWWIKAVIQDDEFMKRLLYMTDDKIYESIRKRIYDLE | 0.05 | 0.1 | Kd (germline 4E10): 0.1 nM
9 | 4E10_T298 (designed binder) GHHHHHHGSEVSQNDIIKALASPLINDGMVVSDFADHVITREQNAPTGLPVEPVGVAIPHTDSKYVRQNAISVGILAEPVNFEDAGGEPDPVPVRVVFMLALGNWFDITNVLWWIMDVIQDADFMQQLLVMNDDEIYQSIYTRISEAAGMAGIHFRRHYVRHLPLEHHHHHH |  |  | factor weaker than the corresponding 10E8 scaffold (10E8 antibody [5]): 30 fold; Kd (10E8 antibody [6]): 3 nM
10 | 10E8_T93v2RT12-1 (designed binder) GKADEVREKARRRMEQAVEEFKRRLRQFEEKVKQKEPRDDEINRWIDIVKKKADEAKKRVEEVGDQAADEAAQLGNDPNVNWFDITNVLWDVKKLTEKAINDIDDALKKMKDWLESGLEHHHHHH | 0.04 | 0.018 | Kd [3]: 290000 to 720000 nM
11 | 10E8_T93v2RT12-3 (designed binder) GKADEVREKARRRMEQAVEEFKRRLRQFEEKVKQKEPRDDEINRWIDIVKKKADEAKKRVEEVGDQAADEAAQLGNDPNVSWFNISNVLWDVRKLTEKAINDIDDALKKMKDWLESGLEHHHHHH | 0.11 | 0.58 | 
12 | 10E8_T93v2RT12-4 (designed binder) GKADEVREKARRRMEQAVEEFKRRLRQFEEKVKQKEPRDDEINRWIDIVKKKADEAKKRVEEVGDQAADEAAQLGNDPNVNWFDISRVLWDVKKLTEKAINDIDDALKKMKDWLESGLEHHHHHH | 2.7 |  | 
13 | 10E8_T93v2RT12-5 (designed binder) GKADEVREKARRRMEQAVEEFKRRLRQFEEKVKQKEPRDDEINRWIDIVKKKADEAKKRVEEVGDQAADEAAQLGNDPNVNWFDITQVLWDVKKLTEKAINDIDDALKKMKDWLESGLEHHHHHH | 0.022 |  | 
14 | 4E10_T117 (designed binder) HHHHHHNAMQGIHFRRHYVRHLPKEVSQNDIIKALASPLINDGMVVSDFADHVITREQNFPTGLPVEPVGVAIPHTDSKYVRQNAISVGILAEPVNFEDAGGEPDPVPVRVVFMLALGNWFDITNVLWWIMDVIQDEDFMQQLLVMNDDEIYQSIYTRISE |  |  | factor weaker than the corresponding 10E8 scaffold (10E8 antibody [7]): 30 fold; Kd (10E8 antibody [6]): 3 nM
